The text below walks through data of US20140087995A1 (published 2014).

In test [1] the target is T1, human calcitonin receptor (human, UniProt P30988 25-474).
T1 construct: whole, on cells; Used as cell membranes; also called hCTR; hCT
T1 sequence (looked up): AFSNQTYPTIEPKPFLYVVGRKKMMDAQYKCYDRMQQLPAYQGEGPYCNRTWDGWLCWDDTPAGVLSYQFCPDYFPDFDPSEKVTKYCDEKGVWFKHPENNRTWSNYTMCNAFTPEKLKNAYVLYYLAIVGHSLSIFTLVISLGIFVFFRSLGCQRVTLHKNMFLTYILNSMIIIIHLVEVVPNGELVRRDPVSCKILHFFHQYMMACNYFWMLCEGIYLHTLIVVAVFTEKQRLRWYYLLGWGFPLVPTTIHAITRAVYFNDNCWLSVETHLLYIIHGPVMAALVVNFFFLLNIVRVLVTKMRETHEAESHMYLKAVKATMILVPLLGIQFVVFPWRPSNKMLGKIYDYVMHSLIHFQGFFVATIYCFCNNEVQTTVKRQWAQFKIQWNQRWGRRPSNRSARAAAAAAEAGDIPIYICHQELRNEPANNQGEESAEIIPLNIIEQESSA
Description: ratio of hCTR IC50 to hAmylin-R IC50 (reference: human amylin receptor). In outline:
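IC₅₀ values were derived by one-site competition analysis of SPA counts. Cell membranes (35 ng/μL) with SPA beads were incubated with test compounds for 120 min at 25° C in Hepes buffer, pH 7.4, containing CaCl2, MgCl₂, OA and Tween20.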

Test [2] has as its target T1, human calcitonin receptor. Description: SPA competition on BHK cell membranes, 125I-calcitonin as radioligand (Assay VII). In outline:
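BHK hCTR membranes 35 ng/μL + SPA beads 0.05 mg/well; buffer 50 mM Hepes pH 7.4, 1 mM CaCl2, 5 mM MgCl₂, 0.1% OA, 0.02% Tween20. 120 min, 25° C., shaking. Scintillation count; IC50 by one-site binding competition.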

Numbered stars: 1 amine (or outer) side, 2 acyl side, 3 side chain; on linkers, the order of the positions; unused ones are H or OH. Bridge positions count the residues as written; N and C are the ends. Side chains are listed from the residue outwards. Ends that are not written are not given here. * marks the point of attachment. C20 diacid = O=C(O)CCCCCCCCCCCCCCCCCCC(=O)*; γGlu = O=C(O)[C@H](CCC(=O)[*:2])N[*:1]

B1: N^ε1-[(4S)-4-carboxy-4-[[(4S)-4-carboxy-4-(19-carboxynonadecanoylamino)butanoyl]amino]butanoyl]-[Glu14,Arg17,Pro21,Pro27,Arg34]-h-amylin (peptide)
peptide: K([γGlu-γGlu-C20 diacid])CNTATCATQRLAEFLRHSSPNFGAIPSSTNVGRNTY-NH2
modifications: disulfide 2-7; N-terminus assumed
SMILES: CC[C@H](C)[C@H](NC(=O)[C@H](C)NC(=O)CNC(=O)[C@H](Cc1ccccc1)NC(=O)[C@H](CC(N)=O)NC(=O)[C@@H]1CCCN1C(=O)[C@H](CO)NC(=O)[C@H](CO)NC(=O)[C@H](Cc1c[nH]cn1)NC(=O)[C@H](CCCNC(=N)N)NC(=O)[C@H](CC(C)C)NC(=O)[C@H](Cc1ccccc1)NC(=O)[C@H](CCC(=O)O)NC(=O)[C@H](C)NC(=O)[C@H](CC(C)C)NC(=O)[C@H](CCCNC(=N)N)NC(=O)[C@H](CCC(N)=O)NC(=O)[C@@H](NC(=O)[C@H](C)NC(=O)[C@@H]1CSSC[C@H](NC(=O)[C@@H](N)CCCCNC(=O)CC[C@H](NC(=O)CC[C@H](NC(=O)CCCCCCCCCCCCCCCCCCC(=O)O)C(=O)O)C(=O)O)C(=O)N[C@@H](CC(N)=O)C(=O)N[C@@H]([C@@H](C)O)C(=O)N[C@@H](C)C(=O)N[C@@H]([C@@H](C)O)C(=O)N1)[C@@H](C)O)C(=O)N1CCC[C@H]1C(=O)N[C@@H](CO)C(=O)N[C@@H](CO)C(=O)N[C@H](C(=O)N[C@@H](CC(N)=O)C(=O)N[C@H](C(=O)NCC(=O)N[C@@H](CCCNC(=N)N)C(=O)N[C@@H](CC(N)=O)C(=O)N[C@H](C(=O)N[C@@H](Cc1ccc(O)cc1)C(N)=O)[C@@H](C)O)C(C)C)[C@@H](C)O
notes: also called compound 88
B1: the “Ratio hCT/hAmylin binding” value in test [1] was 46.5. Moreover, the IC50 in test [2] amounted to 34.9 nM.

B2: N^ε1-[(4S)-4-carboxy-4-[[(4S)-4-carboxy-4-(19-carboxynonadecanoylamino)butanoyl]amino]butanoyl]-[Glu14,Arg17,Pro21,Pro27,His34,Glu35]-h-amylin (peptide)
peptide: K([γGlu-γGlu-C20 diacid])CNTATCATQRLAEFLRHSSPNFGAIPSSTNVGHETY-NH2
modifications: disulfide 2-7; N-terminus assumed
SMILES: CC[C@H](C)[C@H](NC(=O)[C@H](C)NC(=O)CNC(=O)[C@H](Cc1ccccc1)NC(=O)[C@H](CC(N)=O)NC(=O)[C@@H]1CCCN1C(=O)[C@H](CO)NC(=O)[C@H](CO)NC(=O)[C@H](Cc1c[nH]cn1)NC(=O)[C@H](CCCNC(=N)N)NC(=O)[C@H](CC(C)C)NC(=O)[C@H](Cc1ccccc1)NC(=O)[C@H](CCC(=O)O)NC(=O)[C@H](C)NC(=O)[C@H](CC(C)C)NC(=O)[C@H](CCCNC(=N)N)NC(=O)[C@H](CCC(N)=O)NC(=O)[C@@H](NC(=O)[C@H](C)NC(=O)[C@@H]1CSSC[C@H](NC(=O)[C@@H](N)CCCCNC(=O)CC[C@H](NC(=O)CC[C@H](NC(=O)CCCCCCCCCCCCCCCCCCC(=O)O)C(=O)O)C(=O)O)C(=O)N[C@@H](CC(N)=O)C(=O)N[C@@H]([C@@H](C)O)C(=O)N[C@@H](C)C(=O)N[C@@H]([C@@H](C)O)C(=O)N1)[C@@H](C)O)C(=O)N1CCC[C@H]1C(=O)N[C@@H](CO)C(=O)N[C@@H](CO)C(=O)N[C@H](C(=O)N[C@@H](CC(N)=O)C(=O)N[C@H](C(=O)NCC(=O)N[C@@H](Cc1c[nH]cn1)C(=O)N[C@@H](CCC(=O)O)C(=O)N[C@H](C(=O)N[C@@H](Cc1ccc(O)cc1)C(N)=O)[C@@H](C)O)C(C)C)[C@@H](C)O
Take B2: the “Ratio hCT/hAmylin binding” value in test [1] was determined as 29.1. The 50% inhibitory concentration (IC50) in test [2] is 15.2 nM.

B3: N^ε1-[(4S)-4-carboxy-4-[[(4S)-4-carboxy-4-(19-carboxynonadecanoylamino)butanoyl]amino]butanoyl]-[Glu14,Arg17,Pro21,Pro27,Pro34,Arg35]-h-amylin (peptide)
peptide: K([γGlu-γGlu-C20 diacid])CNTATCATQRLAEFLRHSSPNFGAIPSSTNVGPRTY-NH2
modifications: disulfide 2-7; N-terminus assumed
SMILES: CC[C@H](C)[C@H](NC(=O)[C@H](C)NC(=O)CNC(=O)[C@H](Cc1ccccc1)NC(=O)[C@H](CC(N)=O)NC(=O)[C@@H]1CCCN1C(=O)[C@H](CO)NC(=O)[C@H](CO)NC(=O)[C@H](Cc1c[nH]cn1)NC(=O)[C@H](CCCNC(=N)N)NC(=O)[C@H](CC(C)C)NC(=O)[C@H](Cc1ccccc1)NC(=O)[C@H](CCC(=O)O)NC(=O)[C@H](C)NC(=O)[C@H](CC(C)C)NC(=O)[C@H](CCCNC(=N)N)NC(=O)[C@H](CCC(N)=O)NC(=O)[C@@H](NC(=O)[C@H](C)NC(=O)[C@@H]1CSSC[C@H](NC(=O)[C@@H](N)CCCCNC(=O)CC[C@H](NC(=O)CC[C@H](NC(=O)CCCCCCCCCCCCCCCCCCC(=O)O)C(=O)O)C(=O)O)C(=O)N[C@@H](CC(N)=O)C(=O)N[C@@H]([C@@H](C)O)C(=O)N[C@@H](C)C(=O)N[C@@H]([C@@H](C)O)C(=O)N1)[C@@H](C)O)C(=O)N1CCC[C@H]1C(=O)N[C@@H](CO)C(=O)N[C@@H](CO)C(=O)N[C@H](C(=O)N[C@@H](CC(N)=O)C(=O)N[C@H](C(=O)NCC(=O)N1CCC[C@H]1C(=O)N[C@@H](CCCNC(=N)N)C(=O)N[C@H](C(=O)N[C@@H](Cc1ccc(O)cc1)C(N)=O)[C@@H](C)O)C(C)C)[C@@H](C)O
notes: also called compound 110
For the molecule B3, in test [1], the “Ratio hCT/hAmylin binding” value came out at 53.6. Besides, the half-inhibitory concentration (IC50) in test [2] turned out to be 17.5 nM.

B4: N^ε1-[(4S)-4-carboxy-4-[[(4S)-4-carboxy-4-(19-carboxynonadecanoylamino)butanoyl]amino]butanoyl]-[Glu14,Arg17,Pro21,Pro27,His34]-h-amylin (peptide)
peptide: K([γGlu-γGlu-C20 diacid])CNTATCATQRLAEFLRHSSPNFGAIPSSTNVGHNTY-NH2
modifications: disulfide 2-7; N-terminus assumed
SMILES: CC[C@H](C)[C@H](NC(=O)[C@H](C)NC(=O)CNC(=O)[C@H](Cc1ccccc1)NC(=O)[C@H](CC(N)=O)NC(=O)[C@@H]1CCCN1C(=O)[C@H](CO)NC(=O)[C@H](CO)NC(=O)[C@H](Cc1c[nH]cn1)NC(=O)[C@H](CCCNC(=N)N)NC(=O)[C@H](CC(C)C)NC(=O)[C@H](Cc1ccccc1)NC(=O)[C@H](CCC(=O)O)NC(=O)[C@H](C)NC(=O)[C@H](CC(C)C)NC(=O)[C@H](CCCNC(=N)N)NC(=O)[C@H](CCC(N)=O)NC(=O)[C@@H](NC(=O)[C@H](C)NC(=O)[C@@H]1CSSC[C@H](NC(=O)[C@@H](N)CCCCNC(=O)CC[C@H](NC(=O)CC[C@H](NC(=O)CCCCCCCCCCCCCCCCCCC(=O)O)C(=O)O)C(=O)O)C(=O)N[C@@H](CC(N)=O)C(=O)N[C@@H]([C@@H](C)O)C(=O)N[C@@H](C)C(=O)N[C@@H]([C@@H](C)O)C(=O)N1)[C@@H](C)O)C(=O)N1CCC[C@H]1C(=O)N[C@@H](CO)C(=O)N[C@@H](CO)C(=O)N[C@H](C(=O)N[C@@H](CC(N)=O)C(=O)N[C@H](C(=O)NCC(=O)N[C@@H](Cc1c[nH]cn1)C(=O)N[C@@H](CC(N)=O)C(=O)N[C@H](C(=O)N[C@@H](Cc1ccc(O)cc1)C(N)=O)[C@@H](C)O)C(C)C)[C@@H](C)O
notes: also called compound 87
For the molecule B4, the “Ratio hCT/hAmylin binding” value in test [1] was found to be 35.6. Moreover, in test [2], the IC50 is 22.5 nM.

In general, IC50 refers to the concentration needed to halve the response being measured.
